Laboratory results published in US20150259426A1 (Novartis, published 2015).

B1: 11H6-Hu penta (11H6 hu pentamer) (other)
chain: EVQLLESGGGLVQPGGSLRLSCAASGTFDKINNMGWYRQAPGKQRDLVAQITPGGITDYADSVKGRFTISRDNSKNTLYLQMNSLRPEDTAVYYCNAEILKRAYIDVYVNYWGQGTLVTVSSGGGGSGGGGSGGGGSGGGGSGGGGSGGGGSGGGGSEVQLLESGGGLVQPGGSLRLSCAASGTFDKINNMGWYRQAPGKQRDLVAQITPGGITDYADSVKGRFTISRDNSKNTLYLQMNSLRPEDTAVYYCNAEILKRAYIDVYVNYWGQGTLVTVSSGGGGSGGGGSGGGGSGGGGSGGGGSGGGGSGGGGSEVQLLESGGGLVQPGGSLRLSCAASGTFDKINNMGWYRQAPGKQRDLVAQITPGGITDYADSVKGRFTISRDNSKNTLYLQMNSLRPEDTAVYYCNAEILKRAYIDVYVNYWGQGTLVTVSSGGGGSGGGGSGGGGSGGGGSGGGGSGGGGSGGGGSEVQLLESGGGLVQPGGSLRLSCAASGTFDKINNMGWYRQAPGKQRDLVAQITPGGITDYADSVKGRFTISRDNSKNTLYLQMNSLRPEDTAVYYCNAEILKRAYIDVYVNYWGQGTLVTVSSGGGGSGGGGSGGGGSGGGGSGGGGSGGGGSGGGGSEVQLLESGGGLVQPGGSLRLSCAASGTFDKINNMGWYRQAPGKQRDLVAQITPGGITDYADSVKGRFTISRDNSKNTLYLQMNSLRPEDTAVYYCNAEILKRAYIDVYVNYWGQGTLVTVSS
B2: 4E6-Hu penta (4E6 hu pentamer) (other)
chain: EVQLLESGGGLVQPGGSLRLSCAASGRTFGSIRVGWFRQAPGKGREFVSAINRNDGTTYYADSVKGRFTISRDNSKNTVYLQMNSLRPEDTAVYYCAAGLQYNRAADRVPVGAVYWGQGTLVTVSSGGGGSGGGGSGGGGSGGGGSGGGGSGGGGSGGGGSEVQLLESGGGLVQPGGSLRLSCAASGRTFGSIRVGWFRQAPGKGREFVSAINRNDGTTYYADSVKGRFTISRDNSKNTVYLQMNSLRPEDTAVYYCAAGLQYNRAADRVPVGAVYWGQGTLVTVSSGGGGSGGGGSGGGGSGGGGSGGGGSGGGGSGGGGSEVQLLESGGGLVQPGGSLRLSCAASGRTFGSIRVGWFRQAPGKGREFVSAINRNDGTTYYADSVKGRFTISRDNSKNTVYLQMNSLRPEDTAVYYCAAGLQYNRAADRVPVGAVYWGQGTLVTVSSGGGGSGGGGSGGGGSGGGGSGGGGSGGGGSGGGGSEVQLLESGGGLVQPGGSLRLSCAASGRTFGSIRVGWFRQAPGKGREFVSAINRNDGTTYYADSVKGRFTISRDNSKNTVYLQMNSLRPEDTAVYYCAAGLQYNRAADRVPVGAVYWGQGTLVTVSSGGGGSGGGGSGGGGSGGGGSGGGGSGGGGSGGGGSEVQLLESGGGLVQPGGSLRLSCAASGRTFGSIRVGWFRQAPGKGREFVSAINRNDGTTYYADSVKGRFTISRDNSKNTVYLQMNSLRPEDTAVYYCAAGLQYNRAADRVPVGAVYWGQGTLVTVSS

Target: cell-bound human DR5 (Colo205 and other human cell lines) (human, UniProt O14763 56-440)
Experiment: cell-based or functional assay

Binder	IC50, cell survival, A549 [pM]	IC50, cell survival, BxPC-3 [pM]	IC50, cell survival, Colo205 [pM]	IC50, cell survival, H226 [pM]	IC50, cell survival, H2122 [pM]	IC50, cell survival, Jurkat (72) [pM]	IC50, cell survival, M30 [pM]	IC50, cell survival, MiaPaCa-2 [pM]	IC50, cell survival, Panc-1 [pM]	IC50, cell survival, T24 [pM]	fold improvement of IC50, penta against tetra, A549 [fold]	fold improvement of IC50, penta against tetra, BxPC-3 [fold]	fold improvement of IC50, penta against tetra, Colo205 [fold]	fold improvement of IC50, penta against tetra, H226 [fold]	fold improvement of IC50, penta against tetra, H2122 [fold]	fold improvement of IC50, penta against tetra, Jurkat (72) [fold]	fold improvement of IC50, penta against tetra, M30 [fold]	fold improvement of IC50, penta against tetra, MiaPaCa-2 [fold]	fold improvement of IC50, penta against tetra, Panc-1 [fold]	fold improvement of IC50, penta against tetra, T24 [fold]
B1	> 10000	4.6	1.2	12.4	1.7	1.7	> 10000	3.1	6.7	3.1	1	3	3	14	2	4	1	4	35	7
B2	> 10000	5	0.7	27.2	0.8	3.6	> 10000	3.8	10.5	4.3	1	6	5	5	7	5	1	5	22	10
